The values that follow come from article PMC6755812.

The target of experiment [1] is Escherichia coli peptide methionine sulfoxide reductase A (E. coli) (UniProt P0A744).
For experiment [2], the target named is Escherichia coli thioredoxin reductase (E. coli) (UniProt P0A9P4).
For experiment [3], the target named is bovine pancreas insulin (bovine).
Chain of bovine pancreas insulin (bovine) (P01317 25-54, chain 1 of 2): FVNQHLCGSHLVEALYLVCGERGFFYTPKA
Chain of bovine pancreas insulin (bovine) (P01317 85-105, chain 2 of 2): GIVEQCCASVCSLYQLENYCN

Chain of Escherichia coli peptide methionine sulfoxide reductase A (E. coli) (P0A744 2-212): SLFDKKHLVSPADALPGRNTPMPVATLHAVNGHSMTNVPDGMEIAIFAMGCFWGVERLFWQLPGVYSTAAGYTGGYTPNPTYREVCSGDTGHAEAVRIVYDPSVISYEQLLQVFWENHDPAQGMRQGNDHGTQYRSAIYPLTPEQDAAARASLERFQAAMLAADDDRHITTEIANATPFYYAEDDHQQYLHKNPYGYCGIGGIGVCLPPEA
Chain of Escherichia coli thioredoxin reductase (E. coli) (P0A9P4 2-321): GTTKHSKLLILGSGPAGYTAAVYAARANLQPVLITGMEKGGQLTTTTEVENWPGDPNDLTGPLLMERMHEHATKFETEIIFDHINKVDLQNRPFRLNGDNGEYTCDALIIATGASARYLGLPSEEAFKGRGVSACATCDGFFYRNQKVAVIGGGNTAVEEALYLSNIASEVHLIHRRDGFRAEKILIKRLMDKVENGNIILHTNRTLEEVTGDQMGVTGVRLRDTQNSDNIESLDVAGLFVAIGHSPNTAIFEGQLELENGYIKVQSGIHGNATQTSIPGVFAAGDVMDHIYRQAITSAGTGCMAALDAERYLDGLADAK

B1: human thioredoxin (enzyme)
chain: MVKQIESKTAFQEALDAAGDKLVVVDFSATWCGPCKMIKPFFHSLSEKYSNVIFLEVDVDDCQDVASECEVKCMPTFQFFKKGQKVGEFSGANKEKLEATINELV
In the case of B1, in experiment [1], the k1: rate constant of Trx–MsrA mixed disulfide formation (stopped-flow fluorescence, 1 μM oxidized MsrA, 5-100 μM reduced Trx, pH 7.0, 25 °C) was found to be 221000 M^−1 s^−1; the k2: rate constant of mixed disulfide dissociation to reduced MsrA and oxidized Trx (stopped-flow fluorescence, pH 7.0, 25 °C) came out at 3.63 s^−1. The molecule also yielded a Catalytic activity of S-MetO reduction by NADPH (Vi/[Trx]) in the reconstituted NADPH/TrxR/Trx/MsrA chain (4.5 μM TrxR, 4.5 μM MsrA, 0.1-1.0 μM Trx, pH 7.0, 25 °C) in experiment [2] of 0.22 min^−1. In addition, the Specific insulin reductase activity (0.13 mM insulin, 1 mM DTT, 0.5-2.0 μM Trx, onset of aggregation at OD650, pH 7.0, 25 °C) in experiment [3] came to 0.155 min^−1 μM^−1.
